T1: Recombinant CD133 domain A polypeptide (Homo sapiens, UniProt O43490 180-400, limits assumed)
T1 construct: also called CD133A; recombinant CD133 Extracellular Domain A
T1 sequence: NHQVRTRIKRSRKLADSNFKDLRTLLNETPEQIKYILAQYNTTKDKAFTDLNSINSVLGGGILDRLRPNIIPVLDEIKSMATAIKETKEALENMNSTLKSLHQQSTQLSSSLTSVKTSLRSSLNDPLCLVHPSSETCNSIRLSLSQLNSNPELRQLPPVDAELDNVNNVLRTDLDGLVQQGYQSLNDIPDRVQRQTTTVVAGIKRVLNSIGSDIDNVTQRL

T2: BSA-conjugated CD133 immunogenic polypeptide A (Homo sapiens, N-terminal lysine used for conjugation; conjugated to BSA)
T2 construct: The peptide stood in the assays as a BSA conjugate; also called A-BSA; PepA
T2 peptide: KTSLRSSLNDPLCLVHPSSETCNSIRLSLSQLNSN

T3: BSA-conjugated CD133 immunogenic polypeptide B (Homo sapiens, lysine added as C-terminal residue for conjugation; conjugated to BSA)
T3 construct: The peptide stood in the assays as a BSA conjugate; the text gives 615-643; also called B-BSA; Pep B
T3 peptide: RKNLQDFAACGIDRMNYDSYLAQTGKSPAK

T4: Recombinant CD133 domain B polypeptide (Homo sapiens, UniProt O43490 515-745)
T4 construct: also called CD133B; recombinant CD133 Extracellular Domain B
T4 sequence: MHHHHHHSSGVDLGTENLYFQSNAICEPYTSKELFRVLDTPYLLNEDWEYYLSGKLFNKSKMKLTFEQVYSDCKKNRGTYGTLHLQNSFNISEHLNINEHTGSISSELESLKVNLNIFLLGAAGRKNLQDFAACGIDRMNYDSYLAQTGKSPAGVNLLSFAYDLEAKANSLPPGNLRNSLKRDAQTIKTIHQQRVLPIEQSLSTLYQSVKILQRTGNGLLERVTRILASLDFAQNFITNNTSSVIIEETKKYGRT


Tests used:
[1] = target: T1, Recombinant CD133 domain A polypeptide; assay: direct ELISA, recombinant domain coated
Procedure: (§1) The cDNAs of IgG heavy and light chains were amplified by polymerase chain reaction (PCR) and cloned into a mammalian expression vector. The recombinant monoclonal antibody was then transiently expressed using a HEK293 cell system. The expressed recombinant antibodies were then tested by ELISA against CD133 immunogenic polypeptides A and B and recombinant domain A and B polypeptides. […] The testing confirmed the specificity of the mAbs. The cDNA was sequenced.

[2] = target: T2, BSA-conjugated CD133 immunogenic …; assay: direct ELISA, BSA-conjugated peptide coated
[3] = target: T3, BSA-conjugated CD133 immunogenic …; assay: direct ELISA, BSA-conjugated peptide coated
[4] = target: T4, Recombinant CD133 domain B polypeptide; assay: subclone screening by ELISA and Western blot
[5] = target: T4, Recombinant CD133 domain B polypeptide; assay: direct ELISA, recombinant domain coated
Procedure: as §1

| binding result [1] | binding result [2] | binding result [3] | binding result [4] | binding result [5] | Binder |
| --- | --- | --- | --- | --- | --- |
| no binding | no binding | binds | binds | – | anti-CD133 monoclonal antibody mAb 133-3 (antibody, V domains shown, Rabbit IgG from a hybridoma, cloned and made recombinantly in HEK293 cells) VH: QSVEESGGRLVTPGTPLTLTCTVSGFSLSRYAMSWVRQAPGKGLDWIGYIDIGGGAYYASWAKGRFTISETSTTVYLKVNSPTTEDTATYFCARGVANSDIWGPGTLVTVSS VL: ALVMTQTPSPVSAAVGGTVTINCQSSQSVFNNKWLSWYQQKPGQPPKLLIYFVSTLASGVPSRFKGSGSGTQFTLTISGVQCDDAATYYCQGSDYSSGWYSPFGGGTEVVVEG |
| – | – | no binding | – | no binding | anti-CD133 monoclonal antibody mAb 47-10 (antibody, V domains shown, Rabbit IgG from a hybridoma, cloned and made recombinantly in HEK293 cells; also called clone 47-10; mAb subclone 47-10) VH: QSVEESGGRLVTPGTPLTLTCTVSGIDLNNYNMQWVRQAPGKGLEWIGATFGSDSIYYATWAKGRFTISKTSTTVDLKMTSLTTEDTATYFCARGGLWGPGTLVTVSS VL: AQVLTQTASPVSAAVGATVTINCQSSQSVYNNNYLAWFQQKPGQPPKLLIYRASTLASGVSSRFKGSGSGTQFALTISGVQCDDAGTYYCQGEFSCDSADCAAFGGGTEVVVKG |

From patent US20200354468A1 (US Dept. of Health and Human Services, published 2020)
